Reference: publication PMC12209146 (Cellular and Molecular Life Sciences: CMLS, 2025)

Biological target: toxin B (TcdB) from Clostridioides difficile VPI 10,463 (Clostridioides difficile VPI 10,463, UniProt P18177 1-2366)
Experiment: co-sedimentation; in vitro precipitation assay: TcdB (50 ng, 2 ng/µl) with α-defensin-6 (6 µM) or Angie peptides (100 µM) in 25 µl PBS, 30 min at 37 °C; centrifuged 20 min, 14,000 rpm, 4 °C; supernatant and pellet immunoblotted for TcdB
Settings: both partners purified

toxin B (TcdB) from Clostridioides difficile VPI 10,463, sequence (P18177 whole entry): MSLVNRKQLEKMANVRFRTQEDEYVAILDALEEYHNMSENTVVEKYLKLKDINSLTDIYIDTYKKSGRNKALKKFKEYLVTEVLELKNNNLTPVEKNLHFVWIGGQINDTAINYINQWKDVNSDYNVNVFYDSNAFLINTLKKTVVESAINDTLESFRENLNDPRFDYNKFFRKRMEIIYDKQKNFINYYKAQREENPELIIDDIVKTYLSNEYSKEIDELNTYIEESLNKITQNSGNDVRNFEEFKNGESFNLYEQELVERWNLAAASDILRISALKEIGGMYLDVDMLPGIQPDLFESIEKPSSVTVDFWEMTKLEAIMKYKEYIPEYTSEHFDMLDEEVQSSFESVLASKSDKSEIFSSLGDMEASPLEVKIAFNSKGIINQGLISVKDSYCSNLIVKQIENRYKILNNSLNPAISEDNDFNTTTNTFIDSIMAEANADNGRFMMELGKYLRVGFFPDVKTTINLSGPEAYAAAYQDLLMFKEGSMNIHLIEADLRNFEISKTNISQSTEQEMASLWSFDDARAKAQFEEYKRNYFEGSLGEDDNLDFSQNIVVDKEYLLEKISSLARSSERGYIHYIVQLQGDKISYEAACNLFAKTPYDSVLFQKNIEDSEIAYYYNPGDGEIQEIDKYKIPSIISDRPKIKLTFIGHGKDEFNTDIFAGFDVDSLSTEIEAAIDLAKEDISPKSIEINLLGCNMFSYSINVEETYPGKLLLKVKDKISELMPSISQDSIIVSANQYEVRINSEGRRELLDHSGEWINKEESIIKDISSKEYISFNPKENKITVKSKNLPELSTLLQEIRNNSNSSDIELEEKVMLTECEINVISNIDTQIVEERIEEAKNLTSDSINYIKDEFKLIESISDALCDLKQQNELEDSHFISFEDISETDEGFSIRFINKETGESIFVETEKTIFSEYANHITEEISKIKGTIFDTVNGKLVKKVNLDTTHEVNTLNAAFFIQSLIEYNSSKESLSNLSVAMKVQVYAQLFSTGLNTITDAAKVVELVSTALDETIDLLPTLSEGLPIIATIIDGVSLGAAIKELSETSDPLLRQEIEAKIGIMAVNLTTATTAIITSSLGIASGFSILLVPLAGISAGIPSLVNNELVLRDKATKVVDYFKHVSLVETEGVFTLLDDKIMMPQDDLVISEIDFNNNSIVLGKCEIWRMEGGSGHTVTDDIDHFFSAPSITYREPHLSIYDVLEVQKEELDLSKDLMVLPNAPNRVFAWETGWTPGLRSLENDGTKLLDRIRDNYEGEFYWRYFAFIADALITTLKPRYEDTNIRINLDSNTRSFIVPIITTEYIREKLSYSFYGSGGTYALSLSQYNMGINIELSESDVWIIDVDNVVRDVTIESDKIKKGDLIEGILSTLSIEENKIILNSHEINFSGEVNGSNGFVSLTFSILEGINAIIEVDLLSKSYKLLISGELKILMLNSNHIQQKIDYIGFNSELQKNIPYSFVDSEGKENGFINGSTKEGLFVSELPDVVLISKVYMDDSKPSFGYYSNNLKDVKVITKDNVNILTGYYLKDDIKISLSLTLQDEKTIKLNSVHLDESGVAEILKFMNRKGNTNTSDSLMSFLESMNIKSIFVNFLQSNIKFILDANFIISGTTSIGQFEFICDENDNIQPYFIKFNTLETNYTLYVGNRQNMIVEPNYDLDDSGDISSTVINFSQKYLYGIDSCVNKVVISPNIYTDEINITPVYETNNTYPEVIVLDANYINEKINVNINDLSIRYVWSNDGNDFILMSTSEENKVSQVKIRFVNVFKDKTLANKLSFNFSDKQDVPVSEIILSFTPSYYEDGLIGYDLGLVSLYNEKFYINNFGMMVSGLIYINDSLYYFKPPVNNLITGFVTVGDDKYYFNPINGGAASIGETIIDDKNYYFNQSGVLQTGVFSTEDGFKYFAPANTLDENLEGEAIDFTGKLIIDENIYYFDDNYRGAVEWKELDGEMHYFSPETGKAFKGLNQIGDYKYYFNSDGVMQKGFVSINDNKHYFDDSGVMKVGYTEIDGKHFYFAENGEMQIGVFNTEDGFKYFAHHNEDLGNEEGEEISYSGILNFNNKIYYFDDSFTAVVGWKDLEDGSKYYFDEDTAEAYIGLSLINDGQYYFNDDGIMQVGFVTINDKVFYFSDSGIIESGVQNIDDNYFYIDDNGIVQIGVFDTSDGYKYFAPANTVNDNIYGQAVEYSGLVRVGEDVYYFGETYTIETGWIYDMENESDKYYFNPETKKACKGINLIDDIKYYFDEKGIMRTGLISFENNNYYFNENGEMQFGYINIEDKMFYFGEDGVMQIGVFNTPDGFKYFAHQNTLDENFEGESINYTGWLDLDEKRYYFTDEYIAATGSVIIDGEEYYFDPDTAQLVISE

AFTCHCRRSCYSTEYSYGTCTVMGINHRFCCL (peptide, UniProt Q01524 69-100, looked up) [human peptide α-defensin-6]: binds.
